Results on 1 molecule are retold here after PMC5740162, “Cryo-EM structure of a licensed DNA replication origin” (Nature Communications, 2017).

The target in assay [1] is T1, Mcm4 (budding yeast, UniProt P30665 1-933).
T1 construct: Mcm4, subunit of the yeast Mcm2-7 helicase; Subunit as it stands in the loaded, unmodified MCM double hexamer
T1 sequence: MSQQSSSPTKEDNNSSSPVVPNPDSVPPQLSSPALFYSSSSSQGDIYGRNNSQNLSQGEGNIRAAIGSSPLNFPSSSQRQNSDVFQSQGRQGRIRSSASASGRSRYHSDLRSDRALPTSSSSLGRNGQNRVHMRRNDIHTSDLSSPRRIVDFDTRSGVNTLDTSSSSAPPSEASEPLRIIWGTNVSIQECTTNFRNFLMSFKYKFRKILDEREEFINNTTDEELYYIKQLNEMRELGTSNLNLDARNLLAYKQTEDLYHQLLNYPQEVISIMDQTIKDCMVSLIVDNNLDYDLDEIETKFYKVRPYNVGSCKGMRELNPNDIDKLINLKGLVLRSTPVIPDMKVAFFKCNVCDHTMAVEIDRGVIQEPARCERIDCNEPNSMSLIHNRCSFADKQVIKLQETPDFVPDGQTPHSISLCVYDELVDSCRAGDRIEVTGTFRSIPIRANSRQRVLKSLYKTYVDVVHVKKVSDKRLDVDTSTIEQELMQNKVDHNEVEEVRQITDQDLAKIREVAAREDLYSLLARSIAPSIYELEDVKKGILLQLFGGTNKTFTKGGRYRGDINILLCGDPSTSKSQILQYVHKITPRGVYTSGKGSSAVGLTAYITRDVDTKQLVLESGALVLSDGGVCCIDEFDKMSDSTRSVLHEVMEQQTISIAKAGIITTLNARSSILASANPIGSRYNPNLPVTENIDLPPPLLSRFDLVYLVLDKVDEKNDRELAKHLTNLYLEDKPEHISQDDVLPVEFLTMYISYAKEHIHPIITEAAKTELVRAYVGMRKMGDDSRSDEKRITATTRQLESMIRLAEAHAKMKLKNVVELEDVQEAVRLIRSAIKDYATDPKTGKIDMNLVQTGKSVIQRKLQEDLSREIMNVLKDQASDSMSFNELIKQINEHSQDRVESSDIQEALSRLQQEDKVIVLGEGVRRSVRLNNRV
Nature of the assay: cryo-EM structure; MCM loaded on bead-immobilised biotinylated 2.8 kb ARS1 DNA with ORC, Cdc6, ATP; with or without DDK; high-salt wash (0.3 M KCl); DNA released by MseI in EM buffer (25 mM Hepes 7.6, 5 mM Mg-acetate, 250 mM K-glutamate); lacey carbon grids, Titan Krios/K2. Particulars: both partners purified.

Assay [2] addresses T2, Mcm3 (budding yeast, UniProt P24279 1-971).
T2 construct: Mcm3, subunit of the yeast Mcm2-7 helicase; Subunit as it stands in the loaded, unmodified MCM double hexamer; The complex was purified on calmodulin resin
Described as above. The following applies: both partners purified.

T2 sequence (P24279 whole entry): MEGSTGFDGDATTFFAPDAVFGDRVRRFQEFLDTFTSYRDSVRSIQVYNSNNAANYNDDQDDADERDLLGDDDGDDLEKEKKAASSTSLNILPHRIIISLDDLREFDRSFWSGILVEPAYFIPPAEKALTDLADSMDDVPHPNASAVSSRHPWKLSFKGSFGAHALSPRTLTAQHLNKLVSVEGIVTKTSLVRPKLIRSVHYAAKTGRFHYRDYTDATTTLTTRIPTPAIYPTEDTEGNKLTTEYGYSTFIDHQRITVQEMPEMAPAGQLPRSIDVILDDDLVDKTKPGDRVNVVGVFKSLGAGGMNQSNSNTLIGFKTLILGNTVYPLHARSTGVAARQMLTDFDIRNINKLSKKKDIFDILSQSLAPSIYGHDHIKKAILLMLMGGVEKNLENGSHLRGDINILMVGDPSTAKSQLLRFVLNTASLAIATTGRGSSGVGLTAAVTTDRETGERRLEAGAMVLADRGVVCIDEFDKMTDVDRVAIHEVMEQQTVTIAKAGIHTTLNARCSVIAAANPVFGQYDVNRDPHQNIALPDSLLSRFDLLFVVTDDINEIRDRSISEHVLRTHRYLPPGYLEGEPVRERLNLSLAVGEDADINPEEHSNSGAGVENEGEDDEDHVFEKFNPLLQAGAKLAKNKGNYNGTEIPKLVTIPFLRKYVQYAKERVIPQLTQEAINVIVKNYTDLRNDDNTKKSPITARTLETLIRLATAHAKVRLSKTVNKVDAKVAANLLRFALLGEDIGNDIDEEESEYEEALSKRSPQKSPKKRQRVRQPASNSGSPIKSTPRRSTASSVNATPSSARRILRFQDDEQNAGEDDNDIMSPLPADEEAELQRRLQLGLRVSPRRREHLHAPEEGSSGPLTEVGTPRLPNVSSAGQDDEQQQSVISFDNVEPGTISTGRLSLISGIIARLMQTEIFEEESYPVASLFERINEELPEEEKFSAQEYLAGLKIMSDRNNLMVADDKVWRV

B1: Mcm7 (natural protein, budding yeast)
chain: MSAALPSIQLPVDYNNLFNEITDFLVTFKQDTLSSDATRNENEDENLDAENIEQHLLEKGPKYMAMLQKVANRELNSVIIDLDDILQYQNEKFLQGTQADDLVSAIQQNANHFTELFCRAIDNNMPLPTKEIDYKDDVLDVILNQRRLRNERMLSDRTNEIRSENLMDTTMDPPSSMNDALREVVEDETELFPPNLTRRYFLYFKPLSQNCARRYRKKAISSKPLSVRQIKGDFLGQLITVRGIITRVSDVKPAVEVIAYTCDQCGYEVFQEVNSRTFTPLSECTSEECSQNQTKGQLFMSTRASKFSAFQECKIQELSQQVPVGHIPRSLNIHVNGTLVRSLSPGDIVDVTGIFLPAPYTGFKALKAGLLTETYLEAQFVRQHKKKFASFSLTSDVEERVMELITSGDVYNRLAKSIAPEIYGNLDVKKALLLLLVGGVDKRVGDGMKIRGDINVCLMGDPGVAKSQLLKAICKISPRGVYTTGKGSSGVGLTAAVMKDPVTDEMILEGGALVLADNGICCIDEFDKMDESDRTAIHEVMEQQTISISKAGINTTLNARTSILAAANPLYGRYNPRLSPLDNINLPAALLSRFDILFLMLDIPSRDDDEKLAEHVTYVHMHNKQPDLDFTPVEPSKMREYIAYAKTKRPVMSEAVNDYVVQAYIRLRQDSKREMDSKFSFGQATPRTLLGIIRLSQALAKLRLADMVDIDDVEEALRLVRVSKESLYQETNKSKEDESPTTKIFTIIKKMLQETGKNTLSYENIVKTVRLRGFTMLQLSNCIQEYSYLNVWHLINEGNTLKFVDDGTMDTDQEDSLVSTPKLAPQTTASANVSAQDSDIDLQDA
notes: Mcm7, subunit of the yeast Mcm2-7 helicase; Subunit as it stands in the loaded, unmodified MCM double hexamer
B1: the binding result in assay [1] and in assay [2] was “binds” each time.
